Each block holds one binder with its values, some of them ahead of it.
Key:
[1] = molecular target: T1, PsbO1, photosystem II subunit (endogenous protein in Arabidopsis protein extracts) (Arabidopsis thaliana, UniProt P23321 86-332); experiment: Co-IP with anti-HA magnetic beads from DEX-3 plant extracts, LC-MS/MS
T1 construct: Endogenous protein; also called PSII subunit PsbO1
Experimental: Four-day-old seedlings of Col-0 and transgenic plants DEX:AtCV-HA-3 (DEX-3) were cultured in MS/2 media containing […] for 4 days and then kept in the dark for additional 2 days. The shoots of plants were harvested, ground in liquid N2 and incubated at 4° C. for 3 h with lysis buffer provided by μMACS HA Isolation Kit (Miltenyl Biotec, San Diego, Calif., USA), containing Protease Inhibitor Cocktail (Sigma-Aldrich, St. Louis, Mo., USA). Co-immunoprecipitation was performed using anti-HA magnetic beads from μMACS HA Isolation Kit (Miltenyl Biotec, San Diego, Calif., USA) and incubating the cell lysis with beads at 4° C. for 2 h. LC-MS/MS analysis was performed in Genome Center of University California, Davis, as described previously (Shipman-Roston et al. 2010, Plant Physiol 152: 1297-1308). Scaffold (version Scaffold 3) was used to validate MS/MS-based peptide and protein identification. Peptide identifications were accepted if they could be established at >80.0% probability. […]
To elucidate mechanism(s) by which AtCV disrupts chloroplasts, we identified AtCV potential interacting proteins using co-immunoprecipitation (Co-IP) and subsequent identification of interactors by LC-MS/MS (Smaczniak et al. 2012, Nat Protoc 7: 2144-2158). […] In order to confirm this interaction, we used bimolecular fluorescence complementation (BiFC).

[2] = molecular target: T1, PsbO1, photosystem II subunit …; experiment: Co-IP with anti-PsbO antibody and Protein A beads, immunoblot with anti-HA

T1 sequence (P23321 86-332 limits assumed): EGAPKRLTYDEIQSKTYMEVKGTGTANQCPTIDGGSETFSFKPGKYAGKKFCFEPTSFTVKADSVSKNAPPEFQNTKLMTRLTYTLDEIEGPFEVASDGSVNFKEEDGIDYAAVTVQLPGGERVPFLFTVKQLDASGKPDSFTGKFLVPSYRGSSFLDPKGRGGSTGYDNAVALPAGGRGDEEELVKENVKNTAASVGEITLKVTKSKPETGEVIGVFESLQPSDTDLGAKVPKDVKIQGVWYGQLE

binding result [1]: binds
B1: AtCV-HA (Arabidopsis thaliana chloroplast vesiculation protein, At2G25625, fused to an HA tag; expressed from DEX:AtCV-HA, line DEX-3) (other)
chain: ASLLKTTSKISCRRTENETEPRKNKCSFVLGVAATVVIGGIQINDVASVEAAVVKSPVEEMAAGVVPPRRWSDKRTCPPWLENSLETIVPENLPRPSAHRRLELAGLAKGDAPPVGVVMTRVNRGGCFSV
notes: Expressed in planta after DEX induction; also called DEX:AtCV-HA-3; full length AtCV; not shown: HA tag from vector pBAV 154

binding result [2]: no binding
B2: AtCVΔC-HA (AtCV without the C-terminus conserved domain, HA tagged; DEX::AtCVΔC-HA plants) (other)
chain: ASLLKTTSKISCRRTENETEPRKNKCSFVLGVAATVVIGGIQINDVASVEAAVVKSPVEEMAAGVVPPR
notes: The making of the construct is not described; not shown: HA tag
